± gives the uncertainty stated by the source.

Experimental findings from the supplement of paper PMC7877785 are described below.

The data set can be described thus: self-splicing fitness, log relative to wild type (ln ratio); higher = more splicing; Tetrahymena group I intron in knt gene, E. coli kanamycin selection, DiMSum; sequences stand for … in CUCUCU…GGAGGGAAAAGUUAUCAGGCAUGCACCUGGUAGCUAGUCUUUAAACCAAUAGAUUGCAUCGGUUUAAAAGGCAAGACCGUCAAAUUGCGGGAAAGGGGUCAACAGCCGUUCAGUACCAAGUCUCAGGGGAAACUUUGAGAUGGCCUUGCAAAGGGUAUGGUAAUAAGCUGACGGACAUGGUCCUAACCACGCAGCCAAGUCCUAAGUCAACAGAUCUUCUGUUGAUAUGGAUGCAGUUCACAGACUAAAUGUCGGUCGGGGAAGAUGUAUUCUUCUCAUAAGAUAUAGUCGGACCUCUCCUUAAUGGGAGCUAGCGGAUGAAGUGAUGCAACACUGGAGCCGCUGGGAACUAAUUUGUAUGCGAAAGUAUAUUGAUUAGUUUUGGAGUACUCGUGGUCG
A digest of the protocol: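 Fitness was computed with DiMSum as the error-weighted combination of replicate fold changes, kanamycin versus none, each normalised to wild type. The library randomised all eight intron nucleotides of the P1ex region, with the intron placed in the knt kanamycin-resistance gene on pET-22b(+) in E. coli BL21(DE3). Six replicate transformations were grown overnight at 37°C or 30°C on LB agar with or without 25 μg/mL kanamycin, plus 100 μg/mL carbenicillin, 50 μM IPTG and 0.2% rhamnose. Pooled colonies were amplicon-sequenced on an Illumina HiSeq 2500.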

Consider CGACAGCAAUAUUACGGGGU, for which the “self-splicing fitness (ln)” value by setting is: (30 °C) -4.03 ± 0.17; (37 °C) -3.01 ± 0.17. As to GCGAAGCAAUAUUACGCCGG, the “self-splicing fitness (ln)” value by setting is: (30 °C) -1.91 ± 0.47; (37 °C) -0.944 ± 0.47.

On to AUAAAGCAAUAUUACGGCUA, for which the “self-splicing fitness (ln)” value was 0.756 ± 0.14 (30 °C) and -0.15 ± 0.14 (37 °C). As for UAAUAGCAAUAUUACGGUUA, the “self-splicing fitness (ln)” value runs as follows: (30 °C) -0.888 ± 0.11; (37 °C) -0.925 ± 0.091. As to UGGGAGCAAUAUUACGACUU, the “self-splicing fitness (ln)” value is -2.15 ± 0.091 (30 °C) and -0.921 ± 0.11 (37 °C). For GCGGAGCAAUAUUACGUUUU the same measures were -3.29 ± 0.21 and -2.02 ± 0.21. For UGGAAGCAAUAUUACGGAAA the same measures were -1.8 ± 0.41 and -1.43 ± 0.4.

With CGCUAGCAAUAUUACGCGAG, the “self-splicing fitness (ln)” value is -2.93 ± 0.28 (30 °C) and -2.56 ± 0.21 (37 °C). As to UGAGAGCAAUAUUACGGUAU, the “self-splicing fitness (ln)” value runs as follows: (30 °C) -3.07 ± 0.2; (37 °C) -1.53 ± 0.3. With GUGCAGCAAUAUUACGGUGC, the “self-splicing fitness (ln)” value is -1.91 ± 0.19 (30 °C) and -2.31 ± 0.28 (37 °C). As to AAAAAGCAAUAUUACGAUGG, the “self-splicing fitness (ln)” value (30 °C) is -2.81 ± 0.12 and the “self-splicing fitness (ln)” value (37 °C) was -0.923 ± 0.11. With ACUCAGCAAUAUUACGUUCG, the “self-splicing fitness (ln)” value by setting is: (30 °C) -0.678 ± 0.086; (37 °C) -0.331 ± 0.11.

For the sequence GAGUAGCAAUAUUACGGCUC, the “self-splicing fitness (ln)” value by setting is: (30 °C) -2.59 ± 0.37; (37 °C) -2.51 ± 0.48. With UUCAAGCAAUAUUACGUGGC, the “self-splicing fitness (ln)” value by setting is: (30 °C) -3.8 ± 0.19; (37 °C) -1.83 ± 0.13. In the case of GGCCAGCAAUAUUACGGUGC, the “self-splicing fitness (ln)” value is -2.91 ± 0.12 (30 °C) and -2.01 ± 0.11 (37 °C). For GUAAAGCAAUAUUACGUUCU the same measures were -0.888 ± 0.05 and -0.135 ± 0.071. For CUGGAGCAAUAUUACGUGAC the same measures were -1.85 ± 0.18 and -0.992 ± 0.24. UCCGAGCAAUAUUACGUUCA: the “self-splicing fitness (ln)” value reads like this: (30 °C) -2.55 ± 0.2; (37 °C) -3.16 ± 0.4. On to ACCGAGCAAUAUUACGAAGG, for which the “self-splicing fitness (ln)” value runs as follows: (30 °C) -2.76 ± 0.17; (37 °C) -2.7 ± 0.28. Regarding UGGAAGCAAUAUUACGCAUC, the “self-splicing fitness (ln)” value (37 °C) is -1.1 ± 0.3. For ACGCAGCAAUAUUACGCUGU, the “self-splicing fitness (ln)” value reads like this: (30 °C) -2.71 ± 0.14; (37 °C) -3.83 ± 0.28. In the case of AGAUAGCAAUAUUACGAACU, the “self-splicing fitness (ln)” value was -0.83 ± 0.16 (30 °C) and 0.533 ± 0.17 (37 °C).

For CGCCAGCAAUAUUACGGGCG, the “self-splicing fitness (ln)” value (37 °C) was -2.94 ± 0.4. In the case of AACAAGCAAUAUUACGCUUA, the “self-splicing fitness (ln)” value is -2.08 ± 0.1 (30 °C) and -1.21 ± 0.1 (37 °C). UACGAGCAAUAUUACGGAGU: under “37 °C”, the “self-splicing fitness (ln)” value is -2.68 ± 0.23.

Turning to GGAUAGCAAUAUUACGCAAU, the “self-splicing fitness (ln)” value by setting is: (30 °C) -1.83 ± 0.41; (37 °C) -0.704 ± 0.23. The corresponding values for GUGGAGCAAUAUUACGCGAU are -2.82 ± 0.32 and -2.31 ± 0.39. On to AGAGAGCAAUAUUACGAGGC, for which, under “30 °C”, the “self-splicing fitness (ln)” value is -2.09 ± 0.25. With AUUGAGCAAUAUUACGACAU, the “self-splicing fitness (ln)” value (30 °C) was -0.372 ± 0.013 and the “self-splicing fitness (ln)” value (37 °C) was -0.153 ± 0.033. The corresponding values for GCCAAGCAAUAUUACGAAUU are -3.39 ± 0.13 and -1.51 ± 0.1.

Consider UGGCAGCAAUAUUACGUAAU, for which the “self-splicing fitness (ln)” value (30 °C) is -2.04 ± 0.082 and the “self-splicing fitness (ln)” value (37 °C) is -1.05 ± 0.11. Regarding ACACAGCAAUAUUACGAUGC, the “self-splicing fitness (ln)” value runs as follows: (30 °C) -1.92 ± 0.073; (37 °C) -0.965 ± 0.094. For GGCGAGCAAUAUUACGUUGA, the “self-splicing fitness (ln)” value reads like this: (30 °C) -1.56 ± 0.13; (37 °C) -2.18 ± 0.15. The corresponding values for AGAAAGCAAUAUUACGCGUA are -1.71 ± 0.1 and -0.388 ± 0.082. For ACGAAGCAAUAUUACGCCUG, the “self-splicing fitness (ln)” value runs as follows: (30 °C) -0.445 ± 0.095; (37 °C) 0.217 ± 0.12. As to ACUUAGCAAUAUUACGUCGA, the “self-splicing fitness (ln)” value by setting is: (30 °C) -2.06 ± 0.16; (37 °C) -1.23 ± 0.16. The corresponding values for CGCCAGCAAUAUUACGUCGA are -2.94 ± 0.12 and -1.24 ± 0.081. For CCUUAGCAAUAUUACGGUUA the same measures were -3.48 ± 0.24 and -2.24 ± 0.16. The corresponding values for UCCAAGCAAUAUUACGACAU are -3.54 ± 0.021 and -2.31 ± 0.036. On to AUGGAGCAAUAUUACGUUCG, for which the “self-splicing fitness (ln)” value was -1.89 ± 0.14 (30 °C) and -0.826 ± 0.19 (37 °C). Turning to CGGCAGCAAUAUUACGGGAU, the “self-splicing fitness (ln)” value (30 °C) was -3.24 ± 0.18 and the “self-splicing fitness (ln)” value (37 °C) was -2.38 ± 0.23. For UCCAAGCAAUAUUACGUAAG, the “self-splicing fitness (ln)” value is, setting by setting: (30 °C) -4.14 ± 0.3; (37 °C) -2.37 ± 0.21.

As to UGGAAGCAAUAUUACGACUU, the “self-splicing fitness (ln)” value (30 °C) was 0.319 ± 0.15 and the “self-splicing fitness (ln)” value (37 °C) was found to be 0.0401 ± 0.17. For the sequence UAAAAGCAAUAUUACGUGGG, the “self-splicing fitness (ln)” value (30 °C) is -3.67 ± 0.23 and the “self-splicing fitness (ln)” value (37 °C) was -1.44 ± 0.13. On to CGGUAGCAAUAUUACGUAUU, for which the “self-splicing fitness (ln)” value was -2 ± 0.32 (30 °C) and -2.16 ± 0.27 (37 °C). The corresponding values for UAAAAGCAAUAUUACGCCAG are -1.34 ± 0.12 and -0.458 ± 0.17.

For the sequence CCGUAGCAAUAUUACGCCUC, the “self-splicing fitness (ln)” value reads like this: (30 °C) -1.88 ± 0.44; (37 °C) -1.82 ± 0.35. For CGACAGCAAUAUUACGUUCA, the “self-splicing fitness (ln)” value was -0.308 ± 0.054 (30 °C) and 0.198 ± 0.087 (37 °C). For UGUCAGCAAUAUUACGAUAG, the “self-splicing fitness (ln)” value is -0.276 ± 0.072 (30 °C) and 0.347 ± 0.088 (37 °C). Take AUACAGCAAUAUUACGAAGU: the “self-splicing fitness (ln)” value by setting is: (30 °C) -3.31 ± 0.12; (37 °C) -1.22 ± 0.11.

In the case of GCCCAGCAAUAUUACGGCGG, the “self-splicing fitness (ln)” value was -3.37 ± 0.16 (30 °C) and -1.93 ± 0.17 (37 °C). For GCGAAGCAAUAUUACGAGAG, the “self-splicing fitness (ln)” value by setting is: (30 °C) -3.95 ± 0.34; (37 °C) -1.91 ± 0.2. As to AUUGAGCAAUAUUACGGGAA, the “self-splicing fitness (ln)” value by setting is: (30 °C) -3.22 ± 0.37; (37 °C) -3.86 ± 0.46. As to UAGGAGCAAUAUUACGUGCU, the “self-splicing fitness (ln)” value is -3.16 ± 0.34 (30 °C) and -1.05 ± 0.23 (37 °C). With UAUAAGCAAUAUUACGAGGU, the “self-splicing fitness (ln)” value runs as follows: (30 °C) -3.53 ± 0.23; (37 °C) -2.54 ± 0.23. As to UUGGAGCAAUAUUACGUUUC, the “self-splicing fitness (ln)” value is, setting by setting: (30 °C) -3.77 ± 0.43; (37 °C) -3.44 ± 0.42. For CCAAAGCAAUAUUACGCUUU the same measures were -3.57 ± 0.16 and -2.73 ± 0.21. Regarding UGAUAGCAAUAUUACGUAGG, the “self-splicing fitness (ln)” value by setting is: (30 °C) -1.66 ± 0.16; (37 °C) -0.583 ± 0.16. As to GUGAAGCAAUAUUACGGGGU, the “self-splicing fitness (ln)” value (30 °C) is -3.53 ± 0.16 and the “self-splicing fitness (ln)” value (37 °C) is -1.45 ± 0.14.

Take UCGUAGCAAUAUUACGACAA: the “self-splicing fitness (ln)” value reads like this: (30 °C) -2.42 ± 0.29; (37 °C) -1.5 ± 0.24.

Turning to UAACAGCAAUAUUACGCUAU, the “self-splicing fitness (ln)” value was -2.86 ± 0.12 (30 °C) and -1.82 ± 0.11 (37 °C).
